# Patent US20220211812A1 (Bristol-Myers Squibb, published 2022)
# T1: human RXFP1 receptor (human, UniProt Q9HBX9 1-757)
# T1 sequence (looked up): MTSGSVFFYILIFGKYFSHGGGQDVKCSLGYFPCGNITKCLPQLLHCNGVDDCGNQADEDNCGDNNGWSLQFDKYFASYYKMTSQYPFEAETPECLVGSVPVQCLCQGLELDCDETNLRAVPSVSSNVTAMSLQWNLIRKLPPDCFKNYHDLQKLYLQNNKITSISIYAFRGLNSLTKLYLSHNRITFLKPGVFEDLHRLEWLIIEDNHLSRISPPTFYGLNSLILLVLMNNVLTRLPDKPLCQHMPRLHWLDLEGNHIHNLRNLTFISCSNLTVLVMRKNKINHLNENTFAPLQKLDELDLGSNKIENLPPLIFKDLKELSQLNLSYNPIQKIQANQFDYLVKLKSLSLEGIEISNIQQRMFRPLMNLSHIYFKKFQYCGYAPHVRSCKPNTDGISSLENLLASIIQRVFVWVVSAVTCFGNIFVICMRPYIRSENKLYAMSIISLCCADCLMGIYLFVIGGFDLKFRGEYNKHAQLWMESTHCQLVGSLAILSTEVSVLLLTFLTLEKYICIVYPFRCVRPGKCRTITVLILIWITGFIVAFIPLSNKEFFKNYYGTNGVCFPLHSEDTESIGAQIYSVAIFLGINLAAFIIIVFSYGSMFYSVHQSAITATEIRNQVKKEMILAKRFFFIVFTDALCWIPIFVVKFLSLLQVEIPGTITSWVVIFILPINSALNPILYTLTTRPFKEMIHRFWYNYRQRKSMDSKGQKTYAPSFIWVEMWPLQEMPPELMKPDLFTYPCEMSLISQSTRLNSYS
# B1: AQ1-EEEEPEEEEPEEEEPEEEE-Glu^γ-C15-CH3 (ligand)
# chain 1: XLYSALANKCCHVGCTKRSLARFC
# chain 2: ASWMEEVIKLCGRELVRAQIAICGMSTWS
# peptide: EEEEPEEEEPEEEEPEEEEE
# modifications: not fully specified; Glu^γ bonded by amide to fatty acid -C15-CH3; oxime-linked to pAcF of the A chain; pAcF (para-acetyl-L-phenylalanine) at position 1, oxime-linked to PK enhancer EEEEPEEEEPEEEEPEEEE-Glu^γ-C15-CH3
# B2: AQ1-PEG36-Glu-C13-CH3 (ligand)
# chain 1: XLYSALANKCCHVGCTKRSLARFC
# chain 2: ASWMEEVIKLCGRELVRAQIAICGMSTWS
# modifications: not fully specified; pAcF (para-acetyl-L-phenylalanine) at position 1, oxime-linked to PK enhancer PEG36-Glu-C13-CH3
# B3: AQ1-EGGGGSK-Glu^γ-C13-COOH (ligand)
# chain 1: XLYSALANKCCHVGCTKRSLARFC
# chain 2: ASWMEEVIKLCGRELVRAQIAICGMSTWS
# peptide: EGGGGSKE
# modifications: not fully specified; Glu^γ bonded by amide to fatty acid -C13-COOH; oxime-linked to pAcF of the A chain; pAcF (para-acetyl-L-phenylalanine) at position 1, oxime-linked to PK enhancer EGGGGSK-Glu^γ-C13-COOH
# B4: RLX-AQ1 (ligand)
# chain 1: XLYSALANKCCHVGCTKRSLARFC
# chain 2: ASWMEEVIKLCGRELVRAQIAICGMSTWS
# modifications: pAcF (para-acetyl-L-phenylalanine) at position 1
# B5: AQ1-GGGGS-Glu^γ (SEQ ID NO: 139)-C14-COOH (ligand)
# chain 1: XLYSALANKCCHVGCTKRSLARFC
# chain 2: ASWMEEVIKLCGRELVRAQIAICGMSTWS
# peptide: GGGGSE
# modifications: not fully specified; Glu^γ bonded by amide to fatty acid -C14-COOH (-(C=O)-(CH2)13-COOH); oxime-linked to pAcF of the A chain; modified para-acetyl-L-phenylalanine at the N-terminus (position 1), oxime-linked to PK enhancer GGGGS-Glu^γ-C14-COOH (Formula III)
# B6: AQ1-KK-Glu^γ-C14-COOH (ligand)
# chain 1: XLYSALANKCCHVGCTKRSLARFC
# chain 2: ASWMEEVIKLCGRELVRAQIAICGMSTWS
# peptide: KKE
# modifications: not fully specified; Glu^γ bonded by amide to fatty acid -C14-COOH; oxime-linked to pAcF of the A chain; pAcF (para-acetyl-L-phenylalanine) at position 1, oxime-linked to PK enhancer …
# B7: AQ1-EAQKAQAEAQKAQAEAQKAQA-Glu^γ-C15-COOH (ligand)
# chain 1: XLYSALANKCCHVGCTKRSLARFC
# chain 2: ASWMEEVIKLCGRELVRAQIAICGMSTWS
# peptide: EAQKAQAEAQKAQAEAQKAQAE
# modifications: not fully specified; Glu^γ bonded by amide to fatty acid -C15-COOH; oxime-linked to pAcF of the A chain; pAcF (para-acetyl-L-phenylalanine) at position 1, oxime-linked to PK enhancer EAQKAQAEAQKAQAEAQKAQA-Glu^γ-C15-COOH
# B8: AQ1-KK-Glu^γ-C13-COOH (ligand)
# chain 1: XLYSALANKCCHVGCTKRSLARFC
# chain 2: ASWMEEVIKLCGRELVRAQIAICGMSTWS
# peptide: KKE
# modifications: not fully specified; Glu^γ bonded by amide to fatty acid -C13-COOH; oxime-linked to pAcF of the A chain; pAcF (para-acetyl-L-phenylalanine) at position 1, oxime-linked to PK enhancer …
# B9: AQ1-KK-Glu^γ-C15-COOH (ligand)
# chain 1: XLYSALANKCCHVGCTKRSLARFC
# chain 2: ASWMEEVIKLCGRELVRAQIAICGMSTWS
# peptide: KKE
# modifications: not fully specified; Glu^γ bonded by amide to fatty acid -C15-COOH; oxime-linked to pAcF of the A chain; pAcF (para-acetyl-L-phenylalanine) at position 1, oxime-linked to PK enhancer …
# B10: AQ1-Spermine-Glu^γ-C14-COOH (ligand)
# chain 1: XLYSALANKCCHVGCTKRSLARFC
# chain 2: ASWMEEVIKLCGRELVRAQIAICGMSTWS
# modifications: not fully specified; pAcF (para-acetyl-L-phenylalanine) at position 1, oxime-linked to PK enhancer Spermine-Glu^γ-C14-COOH (compound 27 of Example 6)
# B11: AQ1-PEG36-Glu-C13-COOH (ligand)
# chain 1: XLYSALANKCCHVGCTKRSLARFC
# chain 2: ASWMEEVIKLCGRELVRAQIAICGMSTWS
# modifications: not fully specified; pAcF (para-acetyl-L-phenylalanine) at position 1, oxime-linked to PK enhancer PEG36-Glu-C13-COOH
# B12: AQ1-KGPKGP-Glu^γ-C14-COOH (ligand)
# chain 1: XLYSALANKCCHVGCTKRSLARFC
# chain 2: ASWMEEVIKLCGRELVRAQIAICGMSTWS
# peptide: KGPKGPE
# modifications: not fully specified; Glu^γ bonded by amide to fatty acid -C14-COOH; oxime-linked to pAcF of the A chain; pAcF (para-acetyl-L-phenylalanine) at position 1, oxime-linked to PK enhancer KGPKGP-Glu^γ-C14-COOH
# B13: AQ1-Compound 39 (ligand)
# chain 1: XLYSALANKCCHVGCTKRSLARFC
# chain 2: ASWMEEVIKLCGRELVRAQIAICGMSTWS
# modifications: pAcF (para-acetyl-L-phenylalanine) at position 1, oxime-linked to Compound 39 ((S)-1-(aminooxy)-33-carboxy-4,7,17,27,35-pentaoxo-11,14,21,24-tetraoxa-3,8,18,28,34-pentaazadopentacontan-52-oic acid)
# B14: AQ1-KGGEEKKKEKEKEPKGGEEKKKEKEK-Glu^γ-C15-COOH (ligand)
# chain 1: XLYSALANKCCHVGCTKRSLARFC
# chain 2: ASWMEEVIKLCGRELVRAQIAICGMSTWS
# peptide: KGGEEKKKEKEKEPKGGEEKKKEKEKE
# modifications: not fully specified; Glu^γ bonded by amide to fatty acid -C15-COOH; oxime-linked to pAcF of the A chain; pAcF (para-acetyl-L-phenylalanine) at position 1, oxime-linked to PK enhancer KGGEEKKKEKEKEPKGGEEKKKEKEK-Glu^γ-C15-COOH
# B15: AQ1-EGGS-Glu^γ-C14-COOH (ligand)
# chain 1: XLYSALANKCCHVGCTKRSLARFC
# chain 2: ASWMEEVIKLCGRELVRAQIAICGMSTWS
# peptide: EGGSE
# modifications: not fully specified; Glu^γ bonded by amide to fatty acid -C14-COOH; oxime-linked to pAcF of the A chain; pAcF (para-acetyl-L-phenylalanine) at position 1, oxime-linked to PK enhancer EGGS-Glu^γ-C14-COOH
# B16: AQ1-KKGGS-Glu^γ -C15-COOH (ligand)
# chain 1: XLYSALANKCCHVGCTKRSLARFC
# chain 2: ASWMEEVIKLCGRELVRAQIAICGMSTWS
# peptide: KKGGSE
# modifications: not fully specified; Glu^γ bonded by amide to fatty acid -C15-COOH; oxime-linked to pAcF of the A chain; pAcF (para-acetyl-L-phenylalanine) at position 1, oxime-linked to PK enhancer KKGGS-Glu^γ-C15-COOH
# B17: AQ1-EEEEPEEEEPEEEEPEEGGG-C14-CH3 (ligand)
# chain 1: XLYSALANKCCHVGCTKRSLARFC
# chain 2: ASWMEEVIKLCGRELVRAQIAICGMSTWS
# peptide: EEEEPEEEEPEEEEPEEGGG
# modifications: linked to fatty acid -C14-CH3; oxime-linked to pAcF of the A chain; pAcF (para-acetyl-L-phenylalanine) at position 1, oxime-linked to PK enhancer EEEEPEEEEPEEEEPEEGGG-C14-CH3
# Biological target: T1, human RXFP1 receptor
# Assay: cell-based or functional assay
row,Binder,"hRXFP1/CHO-K1 cAMP EC50 (nM, avg)"
1,B1,0.34 nM
2,B2,0.15 nM
3,B3,0.31 nM
4,B4,0.11 nM
5,B5,0.28 nM
6,B6,0.34 nM
7,B7,4.96 nM
8,B8,0.1 nM
9,B9,0.4 nM
10,B10,0.39 nM
11,B11,0.25 nM
12,B12,0.23 nM
13,B13,2.23 nM
14,B14,1.81 nM
15,B15,0.33 nM
16,B16,1.36 nM
17,B17,0.16 nM
